The RNAGym collection of RNA variant scans (doi:10.7554/elife.80360)

B1: CPEB3 Ribozyme (parent)
chain: GGGGGCCACAGCAGAAGCGUUCACGUCGCGGCCCCUGUCAGAUUCUGGUGAAUCUGCGAAUUCUGCUGU

Variants of: B1
Assay: self-cleavage, relative activity (ratio to wild type); higher = more cleavage; co-transcriptional

Variant	self-cleavage
A23C A42C	0.92
A23C A42U	0.869
U21G G28A	0.245
U21G G28C	0.162
C22U U26C	0.279
C22U U26G	0.207
C22U C29A	0.172
U21G U53A	0.473
C22U U62C	0.171
C22U C32G	0.133
U21C G37A	0.261
U21C G37U	0.264
U21C G28A	0.192
A23G C57A	0.394
C22A C39G	0.223
C22A C39A	0.161
U21C U44G	0.859
U21C U44A	0.911
U21C U44C	0.824
U21G U38C	0.932
A23G G50U	0.971
A23G G50A	0.971
A23G A42C	0.911
A23G A42U	0.862

Variant	self-cleavage
A23G A42G	0.867
C22A U43C	0.167
C22A C45A	0.155
C22A C45U	0.158
U21A U67G	1.02
A23C G30U	0.317
U21G G25A	0.284
C22G C45U	0.158
U21G C54A	0.341
A23G U61G	0.734
A23G U61A	0.867
C22U G48A	0.379
A23C U49G	0.916
C22U C57U	0.192
C22U C57G	0.144
C22U C66U	0.33
A23C A59U	0.67
U21C U55A	0.843
U21C U55G	0.723
A23C G47A	0.924
A23C G47U	0.993
A23C G47C	0.961
A23C U26A	0.628
A23C U26C	0.966

Variant	self-cleavage
A23C U69G	1.02
C22G U53A	0.136
A23G A51G	0.962
A23G A51C	0.914
U21C U46C	0.89
C22A A59U	0.198
C22A A59G	0.232
C22A A59C	0.192
A23G U26G	0.788
A23G U26C	1.03
A23C G41A	0.809
A23C G41C	0.725
C22G U49A	0.172
U21C U43C	0.875
C22G A60G	0.265
A23C U38C	0.85
A23C U38A	0.75
A23C C66G	0.81
C22A C24A	0.0966
U21G G68U	0.701
U21G G68C	0.783
C22A G47C	0.157
U21C U62A	0.661
C22A U44A	0.184

Variant	self-cleavage
C22A U44C	0.217
C22G G56A	0.241
C22G G56C	0.158
A23G G48A	1
C22A A23G	0.198
C22A A23U	0.281
A23U C33U	0.998
U21G G30U	0.214
U21G G30A	0.221
U21G G30C	0.232
U21G G56C	0.495
U21G G56A	0.774
C22U A51U	0.295
A23C C33A	0.746
A23C C63U	0.969
A23U A42U	1
A23U A42G	0.978
A23U A42C	0.992
C22U U46C	0.369
C22U U46G	0.274
A23U C45G	1
A23U C45A	0.997
U21C A51G	0.914
A23C U44A	0.936

Variant	self-cleavage
A23C U44G	0.946
C22A A60U	0.222
C22A A60G	0.279
U21A U55A	0.916
U21A U55G	0.811
C22G U26C	0.209
C22G U26A	0.144
C22U G28C	0.126
A23C G28U	0.2
C22G G68A	0.267
C22G G68C	0.156
C22G G50A	0.189
C22G G58A	0.103
C22U C54U	0.349
C22U C54G	0.285
U21A G65U	0.795
C22A U62C	0.17
C22A U62A	0.148
C22G U64G	0.157
U21C C39G	0.895
U21G A40C	0.222
A23C U36A	0.335
A23C U36G	0.326
C22A C33G	0.168

Variant	self-cleavage
C22U A40G	0.266
C22U A40U	0.184
C22U A40C	0.165
C22U U67G	0.332
C22U U67C	0.365
U21C A23G	0.76
C22G G37A	0.174
C22G G37C	0.956
C22G U69A	0.242
C22G U69G	0.349
U21C C33A	0.516
U21C C33G	0.217
A23G C34G	0.243
C22A G50A	0.24
U21C C66A	0.611
A23C U46G	0.962
A23C U46C	0.959
U21C G68U	1
U21C G68C	0.899
A23G G31U	0.583
A23G G31A	0.781
C22U C35G	0.165
C22A A42U	0.181
U21C C57G	0.384

Variant	self-cleavage
A23C G56U	0.88
A23C G48A	0.978
A23C G48U	0.942
A23G A59G	1.01
A23C U55A	0.866
A23C U55G	0.708
U21A U62C	0.844
C22A A52C	0.173
A23C U43C	0.89
A23U A59C	0.888
A23U A59U	0.969
C22A G68U	0.264
C22A G68A	0.247
C22A G68C	0.27
C22A G65C	0.147
C22A C54A	0.0889
A23C U62A	0.755
C22G C57A	0.221
C22G C57U	0.148
C22A C63U	0.194
C22G C66U	0.182
C22G A40G	0.204
C22G A40C	0.23
C22G A40U	0.105

Variant	self-cleavage
C22G G31A	0.137
C22G G31C	0.0776
C22G U44G	0.16
C22A C27G	0.168
C22A C27A	0.158
C22A C27U	0.144
U21G C35U	0.361
U21G C35G	0.225
C22U A52U	0.315
A23C G31A	0.86
A23G G25C	0.169
C22U A42G	0.204
U21C U61A	0.538
U21G G58A	0.281
U21G G31C	0.181
C22A C57A	0.174
U21G U61A	0.319
A23U C35A	0.395
U21C C45G	0.864
U21C A59C	0.351
C22A A51C	0.176
A23C U67G	0.968
C22A U53C	0.239
C22U C39U	0.179

Variant	self-cleavage
A23G C32G	0.337
C22U G30A	0.164
C22U G30U	0.221
C22G U46G	0.178
A23C C32U	0.85
U21C U53G	0.724
C22A U36C	0.169
U21C G56C	0.426
C22U C24A	0.179
U21G U49G	0.486
U21G U49A	0.527
A23G G58U	0.972
A23G G58A	0.991
C22A G58C	0.184
C22U U49A	0.297
C22G G28A	0.16
A23C U64A	0.833
C22A C34U	0.219
C22A C34G	0.175
U21C G31A	0.569
U21C G31C	0.16
A23C C27G	0.228
U21C U69A	0.885
U21C U69G	0.933

Variant	self-cleavage
C22U A59G	0.324
A23G U64G	0.738
A23G U64C	0.777
A23C A60U	0.516
A23C G25U	0.176
A23C G25C	0.151
C22A C66A	0.232
U21C U26A	0.216
A23G C35U	0.935
C22A G56U	0.151
A23U C34U	1.01
U21G C29A	0.242
U21C C35A	0.229
U21A U61C	0.728
C22A U67C	0.21
C22U U43C	0.295
A23U C24U	0.924
A23U C24G	0.556
U21C C29A	0.274
C22U G68U	0.51
C22G U61A	0.181
C22A G25C	0.255
U21G U46C	0.635
U21G A59U	0.219

Variant	self-cleavage
U21G A59G	0.675
U21G G65A	0.255
U21G U67A	0.549
U21G U67C	0.458
U21G A23G	0.549
U21G U26C	0.308
U21G A42G	0.558
A23G C29U	0.217
A23G C27G	0.175
U21C U64A	0.706
A23C G37U	0.299
U21C A60C	0.406
U21G C24G	0.0852
U21G G47A	0.715
U21G G47C	0.818
U21G G47U	0.638
U21A U43C	0.909
C22G A23C	0.179
C22G A23U	0.24
U21A U64G	0.898
C22G C33G	0.216
A23C C54A	0.849
A23C G58A	0.89
A23C G58U	0.929

Variant	self-cleavage
U21G C57G	0.235
U21G U64G	0.295
U21G U64C	0.254
U21G U64A	0.304
A23U A51G	0.954
U21G A60C	0.235
A23G U46A	1.01
A23G U46G	1.01
C22U U64C	0.279
C22U U64G	0.237
A23G A40U	0.665
A23C C29G	0.485
C22G C34U	0.203
U21C A52G	0.887
U21C A52U	0.93
A23C G68A	0.969
A23C A40U	0.79
A23C A40C	0.544
U21G U36C	0.134
U21G U36G	0.232
C22A U55G	0.162
A23C U53A	0.89
A23G U53G	0.85
C22G C29A	0.258

Variant	self-cleavage
U21G A52C	0.459
U21G G50A	0.488
U21G G50C	0.616
U21C C24A	0.376
C22G G48C	0.212
A23U C66A	0.886
A23C U61C	0.689
C22U A23C	0.276
U21C G48A	0.933
C22A U26A	0.117
C22A G37A	0.212
A23G G56A	0.953
A23U C57G	0.358
U21G C27U	0.112
U21G C27A	0.196
C22U U61A	0.18
C22A U38C	0.151
C22A G30A	0.167
C22G C27G	0.16
A23C C39U	0.796
A23C C35A	0.26
A23C C35U	0.844
A23G C45A	0.955
A23U C32A	0.893

Variant	self-cleavage
U21C A42C	0.853
A23G C39U	0.86
C22G C24U	0.182
C22G C24G	0.0697
C22U G37U	0.181
U21G C45A	0.643
U21G C45G	0.567
U21G C45U	0.593
U21G C39U	0.61
U21G C39A	0.396
U21G C34U	0.53
U21G C34G	0.193
U21G C63U	0.434
U21G C63G	0.158
A23G G28C	0.13
A23G G28A	0.136
U21A G68A	1.02
U21C C27G	0.209
U21C U67G	0.978
C22G C32U	0.182
U21C C22G	0.0423
U21C C22U	0.268
